From US20120316071A1 (published 2012)

How the values were obtained:
[1] = biological target: T1, Recombinant Human DLL4 (delta-like protein 4) (human, UniProt Q9NR61 27-524); experiment: ECL (Meso Scale Discovery) binding assay on immobilised DLL4, Fab 10 nM
T1 construct: also called rHuman DLL4

Recombinant Human DLL4 [2] = biological target: T2, Recombinant Human DLL4 (human, UniProt Q9NR61 27-524); experiment: ECL (MSD) multispot binding assay, DLL4 spotted on plate, purified Fab in solution; signal over blank
T2 construct: Bought recombinant human DLL4 (R&D Systems Cat#1506-D4/CF); That entry includes the signal peptide (amino acids 1-25), the transmembrane region and the cytoplasmic domain; also called delta-like protein 4; Delta-like ligand 4

Recombinant Human DLL4 [3] = biological target: T2, Recombinant Human DLL4; experiment: ELISA, DLL4 coated on plate, Fab in solution, absorbance at 450 nm; signal minus noise

Row | Binder | Signal [10 nM Fab] [1] | ECL Signal/Blank (Recombinant Human DLL4 [2]) | ELISA (Signal-Noise) (Recombinant Human DLL4 [3])
1 | Fab VH1-46_IGHD6-6*01_IGHJ1*01 S102A/S103P/S104F/H111F (APFF) & L6_IGKJ1*01 S76L (Fab, V domains shown, Fab made in E. coli: VH in plasmid A (CH1, His6 and Flag tags), VL in plasmid C (kappa CL); also called H:APFF & L6_IGKJ1*01 S76L) VH: QVQLVQSGAEVKKPGASVKVSCKASGYTFTSYYMHWVRQAPGQGLEWMGIINPSGGSTSYAQKFQGRVTMTRDTSTSTVYMELSSLRSEDTAVYYCAREEYAPFSAEYFQFWGQGTLVTVSS VL: EIVLTQSPATLSLSPGERATLSCRASQSVSSYLAWYQQKPGQAPRLLIYDASNRATGIPARFSGSGSGTDFTLTILSLEPEDFAVYYCQQRSNWPPWTFGQGTKVEIKR | 13700 |  | 
2 | Fab VH1-46_IGHD6-6*01_IGHJ1*01 S102A/S103P/S104F/H111F (APFF) & L6_IGKJ1*01 S76T (Fab, V domains shown, Fab made in E. coli: VH in plasmid A (CH1, His6 and Flag tags), VL in plasmid C (kappa CL); also called H:APFF & L6_IGKJ1*01 S76T) VH: QVQLVQSGAEVKKPGASVKVSCKASGYTFTSYYMHWVRQAPGQGLEWMGIINPSGGSTSYAQKFQGRVTMTRDTSTSTVYMELSSLRSEDTAVYYCAREEYAPFSAEYFQFWGQGTLVTVSS VL: EIVLTQSPATLSLSPGERATLSCRASQSVSSYLAWYQQKPGQAPRLLIYDASNRATGIPARFSGSGSGTDFTLTITSLEPEDFAVYYCQQRSNWPPWTFGQGTKVEIKR | 15700 |  | 
3 | Fab VH1-46_IGHD6-6*01_IGHJ1*01 S102A/S103P/S104F/H111F (APFF) & L6_IGKJ1*01 S76Y (Fab, V domains shown, Fab made in E. coli: VH in plasmid A (CH1, His6 and Flag tags), VL in plasmid C (kappa CL); also called H:APFF & L6_IGKJ1*01 S76Y) VH: QVQLVQSGAEVKKPGASVKVSCKASGYTFTSYYMHWVRQAPGQGLEWMGIINPSGGSTSYAQKFQGRVTMTRDTSTSTVYMELSSLRSEDTAVYYCAREEYAPFSAEYFQFWGQGTLVTVSS VL: EIVLTQSPATLSLSPGERATLSCRASQSVSSYLAWYQQKPGQAPRLLIYDASNRATGIPARFSGSGSGTDFTLTIYSLEPEDFAVYYCQQRSNWPPWTFGQGTKVEIKR | 14800 |  | 
4 | Fab VH5-51_IGHD5-18*01>3_IGHJ4*01 G100K/G104T F29A & V3-4_IGLJ1*01 (Fab, V domains shown, Fab expressed in E. coli with CH1 (plasmid A, His6 and Flag tags) and lambda CL (plasmid E); also called KT F29A) VH: EVQLVQSGAEVKKPGESLKISCKGSGYSATSYWIGWVRQMPGKGLEWMGIIYPGDSDTRYSPSFQGQVTISADKSISTAYLQWSSLKASDTAMYYCARRKYSYTYDYFDYWGQGTLVTVSS VL: QTVVTQEPSFSVSPGGTVTLTCGLSSGSVSTSYYPSWYQQTPGQAPRTLIYSTNTRSSGVPDRFSGSILGNKAALTITGAQADDESDYYCVLYMGSGISYVFGTGTKVTVL |  | 67.9 | 0.02
5 | Fab VH5-51_IGHD5-18*01>3_IGHJ4*01 G100K/G104T G24A & V3-4_IGLJ1*01 (Fab, V domains shown, Fab expressed in E. coli with CH1 (plasmid A, His6 and Flag tags) and lambda CL (plasmid E); also called KT G24A) VH: EVQLVQSGAEVKKPGESLKISCKASGYSFTSYWIGWVRQMPGKGLEWMGIIYPGDSDTRYSPSFQGQVTISADKSISTAYLQWSSLKASDTAMYYCARRKYSYTYDYFDYWGQGTLVTVSS VL: QTVVTQEPSFSVSPGGTVTLTCGLSSGSVSTSYYPSWYQQTPGQAPRTLIYSTNTRSSGVPDRFSGSILGNKAALTITGAQADDESDYYCVLYMGSGISYVFGTGTKVTVL |  | 122 | 0.02
6 | Fab VH5-51_IGHD5-18*01>3_IGHJ4*01 G100K/G104T G35A & V3-4_IGLJ1*01 (Fab, V domains shown, Fab expressed in E. coli with CH1 (plasmid A, His6 and Flag tags) and lambda CL (plasmid E); also called KT G35A) VH: EVQLVQSGAEVKKPGESLKISCKGSGYSFTSYWIAWVRQMPGKGLEWMGIIYPGDSDTRYSPSFQGQVTISADKSISTAYLQWSSLKASDTAMYYCARRKYSYTYDYFDYWGQGTLVTVSS VL: QTVVTQEPSFSVSPGGTVTLTCGLSSGSVSTSYYPSWYQQTPGQAPRTLIYSTNTRSSGVPDRFSGSILGNKAALTITGAQADDESDYYCVLYMGSGISYVFGTGTKVTVL |  | 180 | 0.02
7 | Fab VH5-51_IGHD5-18*01>3_IGHJ4*01 G100K/G104T S28A & V3-4_IGLJ1*01 (Fab, V domains shown, Fab expressed in E. coli with CH1 (plasmid A, His6 and Flag tags) and lambda CL (plasmid E); also called KT S28A) VH: EVQLVQSGAEVKKPGESLKISCKGSGYAFTSYWIGWVRQMPGKGLEWMGIIYPGDSDTRYSPSFQGQVTISADKSISTAYLQWSSLKASDTAMYYCARRKYSYTYDYFDYWGQGTLVTVSS VL: QTVVTQEPSFSVSPGGTVTLTCGLSSGSVSTSYYPSWYQQTPGQAPRTLIYSTNTRSSGVPDRFSGSILGNKAALTITGAQADDESDYYCVLYMGSGISYVFGTGTKVTVL |  | 112 | 0.01
8 | Fab VH5-51_IGHD5-18*01>3_IGHJ4*01 G100K/G104T T30A & V3-4_IGLJ1*01 (Fab, V domains shown, Fab expressed in E. coli with CH1 (plasmid A, His6 and Flag tags) and lambda CL (plasmid E); also called KT T30A) VH: EVQLVQSGAEVKKPGESLKISCKGSGYSFASYWIGWVRQMPGKGLEWMGIIYPGDSDTRYSPSFQGQVTISADKSISTAYLQWSSLKASDTAMYYCARRKYSYTYDYFDYWGQGTLVTVSS VL: QTVVTQEPSFSVSPGGTVTLTCGLSSGSVSTSYYPSWYQQTPGQAPRTLIYSTNTRSSGVPDRFSGSILGNKAALTITGAQADDESDYYCVLYMGSGISYVFGTGTKVTVL |  | 69.4 | 0
